Experimental data from US6482605.

Molecular target: EGF receptor (endogenous, in PC12 cell lysate)

B1: histidine-tagged PTP20 wild-type (6 histidine residues at the N-terminus), tetracycline-controlled expression in PC12 cells (protein)
chain: MHHHHHHSRQSDLVRSFLEQQEARDHRKGAILAREFSDIKARSVAWKTEGVCSTKAGSQQGNSKKNRYKDVVPYDETRVILSLLQEEGHGDYINANFIRGTDGSQAYIATQGPLPHTLLDFWRLVWEFGIKVILMACQETENGRRKCERYWAQEREPLQAGPFCITLTKETALTSDITLRTLQVTFQKESRPVHQLQYMSWPDHGVPSSSDHILTMVEEARCLQGLGPGPLCVHCSAGCGRTGVLCAVDYVRQLLLTQTIPPNFSLFEVVLEMRKQRPAAVQTEEQYRFLYHTVAQLFSRTLQNNSPLYQNLKENRAPICKDSSSLRTSSALPATSRPLGGVLRSISVPGPPTLPMADTYAVVQKRGASGSTGPGTRAPNSTDTPIYSQVAPRIQRPVSHTENAQGTTALGRVPADENPSGPDAYEEVTDGAQTGGLGFNLRIGRPKGPRDPPAEWTRV
  tyrosine phosphorylation of EGF receptor upon EGF stimulation (precipitation, anti-phosphotyrosine blot): Overexpression of PTP20 wt resulted in dramatic dephosphorylation of EGF receptor
